{"source": "paper PMC11381810", "origin": "cited, not measured here", "key": {"[1]": {"target": "syntaxin-1 SNARE motif (Rattus norvegicus) (UniProt P32851)", "settings": "cited from earlier work"}, "[2]": {"target": "syntaxin-1 dimer SNARE motif (Rattus norvegicus) (UniProt P32851)", "settings": "cited from earlier work"}}, "data": [{"substance": "syntaxin-1 SNARE motif (from UniProt P32851)", "values": [{"measurement": "Kd", "setting": "[1]", "value": 1.4, "unit": "µM"}]}, {"substance": "syntaxin-1 dimer SNARE motif (from UniProt P32851)", "values": [{"measurement": "Kd", "setting": "[2]", "value": 12, "unit": "µM"}]}]}
